For experiment [1], the target named is T1, TNFR2 (as used in the Octet measurement) (UniProt P20333 23-257, limits assumed).
T1 construct: Probably human soluble TNFR2; the legend says only TNFR2
T1 sequence (looked up): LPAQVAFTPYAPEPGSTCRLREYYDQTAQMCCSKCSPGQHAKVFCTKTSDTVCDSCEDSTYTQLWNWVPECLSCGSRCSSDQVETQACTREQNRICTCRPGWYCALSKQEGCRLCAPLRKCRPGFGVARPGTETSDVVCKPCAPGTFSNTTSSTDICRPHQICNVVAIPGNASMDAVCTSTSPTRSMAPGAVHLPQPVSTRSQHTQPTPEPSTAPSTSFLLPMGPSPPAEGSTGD
Description: Octet (BLI), monovalent binding. On the technique in general: Biolayer interferometry detects binding as a change in optical thickness at a sensor tip.

A further experiment concerns the target T2, osteoprotegerin (OPG) (UniProt O00300 22-401, limits assumed).
T2 sequence (looked up): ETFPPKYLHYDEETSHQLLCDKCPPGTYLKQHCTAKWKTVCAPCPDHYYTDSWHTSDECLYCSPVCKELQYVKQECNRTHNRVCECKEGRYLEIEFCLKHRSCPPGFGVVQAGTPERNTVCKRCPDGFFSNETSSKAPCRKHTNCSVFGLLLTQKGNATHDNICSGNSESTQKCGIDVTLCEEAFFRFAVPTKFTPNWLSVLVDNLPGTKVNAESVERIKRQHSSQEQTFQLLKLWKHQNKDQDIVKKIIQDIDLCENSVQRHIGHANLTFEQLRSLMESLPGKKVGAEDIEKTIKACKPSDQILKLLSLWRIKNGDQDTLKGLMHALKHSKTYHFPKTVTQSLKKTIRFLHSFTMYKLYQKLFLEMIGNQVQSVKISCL
Description: ELISA on coated OPG, OD 650 nm. The procedure: (§1) To test binding to TNFR family members, target proteins were coated on ELISA plates at 1 μg/mL at 4° C. overnight. Plates were washed, blocked, and antibodies were added at indicated concentrations for 1 hour at RT. Positive control antibodies for each protein were used at ˜1 ug/mL. Antibodies were washed and detected with anti-human IgG HRP for 1 hour. Assay was developed using TMB substrate for 10 minutes. For cell-binding, human CD4+ T cells purified from buffy coats were cultured in flat-bottom plates with anti-CD3/CD28 for 24 hours. Cells were harvested and stained for viability, CD4, CD25 and FOXP3. Test antibody staining was detected using anti-human IgG APC. Binding titration of test antibodies was evaluated on CD4+CD25hiFOXP3+ regulatory T cells and plotted as percent binding.
Background: ELISA stands for enzyme-linked immunosorbent assay.

For experiment [2], the target named is T3, human TNFR2 expressed on cells (human, UniProt P20333 23-461).
T3 sequence (looked up): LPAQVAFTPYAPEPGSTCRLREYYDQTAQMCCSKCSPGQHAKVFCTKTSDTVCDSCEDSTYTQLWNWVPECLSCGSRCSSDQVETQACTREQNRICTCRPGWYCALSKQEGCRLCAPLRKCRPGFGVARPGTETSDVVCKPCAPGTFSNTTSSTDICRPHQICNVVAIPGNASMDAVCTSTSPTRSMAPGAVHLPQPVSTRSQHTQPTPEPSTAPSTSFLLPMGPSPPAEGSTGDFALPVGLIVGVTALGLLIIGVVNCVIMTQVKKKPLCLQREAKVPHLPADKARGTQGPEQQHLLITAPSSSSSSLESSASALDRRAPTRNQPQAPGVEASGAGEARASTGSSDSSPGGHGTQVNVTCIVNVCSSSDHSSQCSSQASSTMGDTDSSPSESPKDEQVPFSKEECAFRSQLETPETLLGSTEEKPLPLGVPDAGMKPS
Description: cell-based or functional assay.

In a further experiment the target is T4, death receptor 6 (DR6) (UniProt O75509 42-349, limits assumed).
T4 sequence (looked up): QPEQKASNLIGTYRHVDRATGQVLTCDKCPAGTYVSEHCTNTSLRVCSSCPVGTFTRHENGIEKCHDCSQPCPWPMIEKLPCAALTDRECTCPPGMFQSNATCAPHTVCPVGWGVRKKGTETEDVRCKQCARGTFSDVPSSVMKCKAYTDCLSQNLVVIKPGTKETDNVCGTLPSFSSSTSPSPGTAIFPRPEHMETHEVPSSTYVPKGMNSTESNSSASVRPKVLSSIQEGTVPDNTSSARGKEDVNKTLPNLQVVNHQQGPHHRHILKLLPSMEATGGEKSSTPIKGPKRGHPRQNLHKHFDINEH
Description: ELISA on coated DR6, OD 650 nm. The procedure: as §1

B1: humanized antibody h600-25-71 (antibody, V domains shown)
VH: EVQLVESGGGLVQPGGSLRLSCAASGIDLSSYAMGWVRQAPGKGLEWVGDISTSGNAYYATWVKGRFTISRDNSKNTLYLQMNSLRAEDTAVYYCARADYGGETYAFDPWGQGTLVTVSS
VL: DIQMTQSPSSLSASVGDRVTITCQASQSISSYLNWYQQKPGKAPKLLIYSASTLASGVPSRFSGSGSGTDFTLTISSLQPEDFATYYCQQGYSDSNIDNVFGGGTKVEIK
notes: also called Ab 25-71; clone 25-71
The term koff denotes a measure of how fast the partners let go of each other. The low end stands for slow dissociation, the high end for fast dissociation. As usually defined, the kon is the second-order rate constant of association. A high value points to fast association. In experiment [1], B1 came in with a koff of 0.000553 s⁻¹ and a kon of 358000 M⁻¹ s⁻¹. In addition, in the experiment with osteoprotegerin (OPG), the binding result is listed as “no binding (tested: about 67 nM)”. In experiment [2], the “ADCC EC50 (reporter line)” value came out at 1140 pM and the “ADCP EC50” value is 710 pM. For the same molecule, the binding result in the experiment with death receptor 6 (DR6) is listed as “no binding (tested: about 67 nM)”.
